In ChEMBL document CHEMBL1145519, “Exploitation of structural and regulatory diversity in glutamate racemases” (Nature, 2007) one finds Km and kcat data, which are given here for 4 proteins.

Substrate in data set [1]: N[C@@H](CCC(=O)O)C(=O)O
As to the kind of experiment: (§1) Activity of Enterococcus faecalis MurI.

Substrate in data set [2]: N[C@H](CCC(=O)O)C(=O)O
Described as §1.

Substrate in data set [3]: N[C@@H](CCC(=O)O)C(=O)O
The following applies: Helicobacter pylori.
Description: Activity of Helicobacter pylori MurI

Substrate in data set [4]: N[C@H](CCC(=O)O)C(=O)O
The following applies: Helicobacter pylori.
Description: Activity of Helicobacter pylori MurI

Substrate in data set [5]: N[C@@H](CCC(=O)O)C(=O)O
The following applies: Helicobacter pylori. The source holds these as a separate data set.
Description: (§2) Activity of Helicobacter pylori MurI A75T mutant

Substrate in data set [6]: N[C@H](CCC(=O)O)C(=O)O
The following applies: Helicobacter pylori. The source holds these as a separate data set.
Description: as §2

Substrate in data set [7]: N[C@@H](CCC(=O)O)C(=O)O
The following applies: Helicobacter pylori. The source holds these as a separate data set.
Description: (§3) Activity of Helicobacter pylori MurI E151K mutant

Substrate in data set [8]: N[C@H](CCC(=O)O)C(=O)O
Description: as §3
The following applies: Helicobacter pylori. This is another data set of the same source.

Changes are numbered by the printed parent chain. Names and notes keep the numbering of the source.

B1: Glutamate racemase (Enterococcus faecalis (strain ATCC 700802 / V583)), Q836J0 (protein)
chain: MSNQEAIGLIDSGVGGLTVLKEALKQLPNERLIYLGDTARCPYGPRPAEQVVQFTWEMADFLLKKRIKMLVIACNTATAVALEEIKAALPIPVVGVILPGARAAVKVTKNNKIGVIGTLGTIKSASYEIAIKSKAPTIEVTSLDCPKFVPIVESNQYRSSVAKKIVAETLQALQLKGLDTLILGCTHYPLLRPVIQNVMGSHVTLIDSGAETVGEVSMLLDYFDIAHTPEAPTQPHEFYTTGSAKMFEEIASSWLGIENLKAQQIHLGGNEND
As to B1, in data set [1], the Michaelis constant (Km) (as a rule, the concentration of substrate that gives half-maximal velocity) turned out to be 1200 µM; the kcat – broadly, the number of substrate molecules converted per active site and unit of time at saturation – is 25 s⁻¹. In data set [2], the Michaelis constant (Km) stood at 250 µM and the kcat stood at 11.7 s⁻¹.

B2: Glutamate racemase (Helicobacter pylori (strain ATCC 700392 / 26695) (Campylobacterpylori)), P56068 (protein)
chain: MKIGVFDSGVGGFSVLKSLLKAQLFDEIIYYGDSARVPYGTKDPTTIKQFGLEALDFFKPHQIKLLIVACNTASALALEEMQKHSKIPVVGVIEPSILAIKRQVKDKNAPILVLGTKATIQSNAYDNALKQQGYLNVSHLATSLFVPLIEESILEGELLETCMRYYFTPLEILPEVVILGCTHFPLIAQKIEGYFMEHFALSTPPLLIHSGDAIVEYLQQNYALKKNACAFPKVEFHASGDVVWLEKQAKEWLKL
B2: in data set [3], the Km was 740 µM and the catalytic constant (kcat) worked out at 1.05 s⁻¹. In data set [4], the Michaelis constant (Km) is 63 µM and the kcat was 0.2 s⁻¹.

B3: Glutamate racemase (Helicobacter pylori (strain ATCC 700392 / 26695) (Campylobacterpylori)), P56068 A75T (protein)
chain: B2 chain with A75T
On to B3, for which, in data set [5], the Km was found to be 7430 µM and the kcat worked out at 1.78 s⁻¹. Also, in data set [6], the Km came to 275 µM and the kcat was determined as 0.065 s⁻¹.

B4: Glutamate racemase (Helicobacter pylori (strain ATCC 700392 / 26695) (Campylobacterpylori)), P56068 E151K (protein)
chain: B2 chain with E151K
As to B4, in data set [7], the Km is 7360 µM and the kcat came out at 2.27 s⁻¹. Besides, in data set [8], the Km stood at 282 µM and the kcat was found to be 0.0833 s⁻¹.
